B1: SPOPL (parent)
chain: PDDKLTLFCEVSVVQDSVNISGHT
B2: NCK2 (parent)
chain: YTGPSSSGRFAGREWYYGNVTRHQ

Variants of: B1
Test: protein stability index of a GFP-peptide fusion (GPS, HEK-293T) (PSI 1-6); higher = more stable
Conditions: c terminus: a fixed tail appended
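Also: lentivirally expressed fusions sorted by FACS into six bins by GFP to DsRed ratio, PSI derived from sequencing read proportions per bin multiplied by bin number.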

Protein stability index, by site and new letter:
G22: S 2.05 | A 1.08 | T 3.74 | F 3.28 | H 1.66 | D 2.87 | P 2.07 | N 1.98 | C 2.59 | E 3.28 | K 2.1 | Q 2.97
V13: P 3.99 | S 3.6 | T 3.79 | W 2.73 | Y 1.94 | R 4.14 | N 4.03 | Q 3.95
I20: N 3.08 | C 2.86 | S 3.04 | Q 3.49 | P 2.59 | Y 2.18 | V 2.55 | H 3.43 | F 1.31 | M 1.78 | T 3.2 | G 3.21 | L 2.56 | K 2.56 | W 2.04 | E 3.42 | A 2.74 | D 3.77
N19: I 1.39 | V 2.65 | K 1.92 | S 3.03 | P 2.29 | D 2.41 | T 1.35 | C 1.05 | Q 1.39 | A 2.53 | G 1.74 | R 1.2
S21: C 1.5 | H 1.61 | N 2.2 | T 3.16 | Q 3.3 | G 2.74 | R 2.47 | E 2.44 | M 2.48 | D 3.2 | I 3.25 | A 2.29 | P 2.29 | L 1.68 | Y 1.85
V18: D 3.67 | Y 1.77 | L 1.57 | I 2.09 | A 2.83 | F 1.73 | N 2.99 | G 2.83 | T 2.81 | P 2.7 | Q 3.27 | R 2.03 | M 2.05 | C 1.85 | E 3.04 | H 2.6 | S 2.82 | K 2.69
S17: F 4.06 | D 3.11 | V 1.03 | R 1.73 | H 1.38 | N 1.84 | Q 2.07 | L 3.52 | G 2 | T 1.85 | E 2.99 | K 3.12 | Y 2.99 | M 3.15 | C 2.61 | A 2.29 | P 2.85
V14: E 3.34 | Y 1.67 | K 2.7 | L 1.71 | I 2.56 | F 2.08 | P 3.59 | W 1.81 | G 2.54 | S 2.07 | A 2.63 | Q 2.7 | C 1.66 | M 2.01 | R 2.74 | T 1.86 | N 2.62 | D 3.07 | H 3.19
T24: E 3.45 | W 3.64 | N 2.97 | S 2.38 | D 2.46 | H 2.4 | F 1.74 | M 2.39 | A 1.54 | Q 2.06 | P 3.77 | I 2.27 | G 1.51 | K 3.16
D16: R 1.21 | K 1.66 | T 1.53 | W 2.43 | H 1.15 | E 1.33 | N 1.8 | Q 1.27 | S 2.32 | A 2.28 | P 1.49 | V 3.7 | G 2.01
Q15: D 3.19 | A 1.71 | H 1.28 | K 2.12 | G 1.97 | S 2.44 | R 1.44 | N 1.97 | E 3.4 | T 2.31 | F 3.28 | P 3.1
H23: K 2.21 | S 2.18 | A 2 | P 2.26 | L 1.69 | G 2.01 | R 2.71 | N 2.6 | C 2 | V 2.03 | T 2.44 | W 5.02 | D 3.06 | I 2.41 | E 3.21 | Q 2.3

Variants of: B2
Test: as above
Conditions: c terminus: a fixed tail appended

Protein stability index, by site and new letter:
T2: C 2.06 | L 1.7 | N 2.19 | S 1.37 | I 1.79 | P 3.3 | A 2.62 | D 2.63 | Q 1.5 | V 2.32 | M 2.62 | K 2.27 | W 2.35 | F 2.04 | E 2.82 | G 2.44 | Y 2.67 | H 1.88 | R 1.67
S6: V 1.58 | H 2.15 | P 1.66 | C 1.69 | K 2.35 | T 1.93 | Y 2.13 | E 1.49 | M 2.35 | D 1.91 | I 1.96 | G 1.54 | L 1.77 | F 3.15 | R 1.46 | Q 2.22 | A 2.09 | N 1.78
S5: L 2.56 | R 2.03 | T 1.86 | K 1.7 | G 2.46 | N 1.95 | Q 1.97 | C 1.31 | M 2.96 | A 2.6 | H 1.92 | I 2.13 | E 1.62 | D 1.96 | V 1.4 | Y 3.23 | W 3.56 | F 2.77
Y1: P 3.8 | D 3.3 | S 2.12 | E 3.28 | H 2.48 | G 2.46 | F 1.47 | Q 2.96 | M 2.57 | R 2.55 | W 2.66 | N 2.73 | L 2.3 | I 2.08 | T 3.08 | C 2.01 | K 2.75 | A 3.25 | V 2.93
R9: M 3.36 | K 1.46 | H 1.45 | C 2.09 | Q 1.81 | N 1.69 | I 3.13 | E 2.5 | P 2.14 | D 1.81 | A 1.56 | G 2.17 | F 4.5
G8: D 2.65 | L 3.02 | N 1.71 | K 1.82 | I 1.59 | Q 1.64 | S 2.22 | T 1.87 | A 1.25 | R 2.3 | M 1.68 | H 1.51 | C 2.32 | E 2.32 | P 1.66 | V 1.48 | F 2.04 | Y 2.22
G3: K 2.08 | N 2.17 | S 2.04 | E 2.34 | Q 1.78 | A 2.23 | Y 2.13 | C 1.83 | I 2.07 | W 2.99 | F 2.25 | P 1.56 | V 2.25 | R 2.17 | D 2.38 | T 1.54 | H 1.71 | M 1.88 | L 1.81
P4: H 2.48 | I 1.03 | F 1.82 | R 3.61 | N 2.32 | L 1.64 | V 1.36 | C 3.83 | Y 3.08 | S 1.79 | E 2.31 | Q 1.26 | K 2.4 | M 2.37 | A 2.13 | T 1.9 | D 1.56 | G 1.99 | W 1.71
S7: N 1.47 | P 2.18 | M 1.58 | A 1.71 | D 1.59 | Q 2 | R 1.82 | C 3.63 | T 2.68 | G 1.82 | H 1.85 | V 1.46 | E 2.32 | F 1.59 | L 2.11 | Y 2.02 | K 2.08
